Publication PMC6177440, “Overlapping motifs on the herpes viral proteins ICP27 and ORF57 mediate interactions with the mRNA export adaptors ALYREF and UIF” (Scientific Reports, 2018)

B1: REF2-I (murine variant of ALYREF) residues 1-155 (domain or fragment)
chain: not shown
notes: Used 15N labelled or unlabelled; source: purified

Key:
Conditions in all cases: both partners purified
[1] = molecular target: B1; test: NMR titration; 15N HSQC of the 15N labelled protein (target) without and with an equimolar amount of the unlabelled partner (binder); ca. 50 µM; 20 mM sodium phosphate, 50 mM NaCl, 50 mM L-Arg, 50 mM L-Glu, 1 mM EDTA, 2 mM TCEP, pH 6.2; 298 K
[2] = molecular target: T1, UIF N-terminal region (residues 1-190), recombinant (human, UniProt Q96QD9 1-190); test: as above
T1 construct: UIF, homo sapiens, Uniprot Q96QD9, residues 1-190, in pET-15b; source: T7 express E. coli, purified (TALON resin, size exclusion chromatography)
T1 sequence (looked up): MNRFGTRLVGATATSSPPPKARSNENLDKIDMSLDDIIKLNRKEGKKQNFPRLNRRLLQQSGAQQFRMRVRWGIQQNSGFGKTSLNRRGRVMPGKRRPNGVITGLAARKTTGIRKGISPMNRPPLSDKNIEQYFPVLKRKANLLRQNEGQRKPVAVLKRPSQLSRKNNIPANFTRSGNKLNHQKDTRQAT

[3] = molecular target: T2, KSHV ORF57 residues 153-455 (KSHV, UniProt Q2HR75 153-455); test: NMR titration; 15N HSQC of the 15N labelled REF2-I construct (target) without and with unlabelled ICP27Δ241 or ksORF57Δ153 (binder); ca. 50 µM; NMR buffer with EDTA decreased to 0.1 mM, pH 6.2; 298 K
T2 construct: ORF57 of Kaposi sarcoma herpes virus (KSHV), residues 153-455, in pET-21a; The strep-II-tag and HRV-3C site lay between thioredoxin and ORF57; also called ksORF57Δ153; ORF57Δ153; source: T7 express E. coli, purified (strep-tag resin, HRV-3C cleavage, size exclusion chromatography); not shown: thioredoxin, N-terminal, cleaved; strep-II, N-terminal, cleaved
T2 sequence: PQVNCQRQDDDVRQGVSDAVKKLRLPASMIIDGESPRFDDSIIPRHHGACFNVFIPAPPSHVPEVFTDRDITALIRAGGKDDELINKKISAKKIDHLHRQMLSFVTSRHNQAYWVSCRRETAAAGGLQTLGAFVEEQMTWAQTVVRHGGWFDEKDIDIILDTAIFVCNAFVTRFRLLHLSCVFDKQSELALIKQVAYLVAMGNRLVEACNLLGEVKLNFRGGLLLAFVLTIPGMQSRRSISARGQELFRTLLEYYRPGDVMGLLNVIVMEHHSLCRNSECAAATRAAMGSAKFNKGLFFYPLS

Row | Binder | binding result [1] | binding result [2] | binding result [3]
1 | KSHV ORF57 residues 68-178 (domain or fragment, ORF57 of Kaposi sarcoma herpes virus (KSHV), residues 68-178, in pET-15b; Used 15N labelled or unlabelled; also called ksORF57^68–178) GRIPKKSQGRSQLRSEIQFCSPLSRPRSPSPVNRYGKKIKFGTAGQNTRPPPEKRPRRRPRDRLQYGRTTRGGQCRAAPKRATRRPQVNCQRQDDDVRQGVSDAVKKLRLP | binds | binds | 
2 | HSV-1 ICP27 residues 103-155 (domain or fragment, ICP27 of HSV-1, residues 103-155; Used 15N labelled; also called ICP27^103–155; source: purified) SVWSRLGARRPSCSPEQHGGKVARLQPPPTKAQPARGGRRGRRRGRGRGGPGA | binds | binds | 
3 | B1 |  |  | binds
